In EP2351583A1:

Molecular target: AAB1/B2Fc
Experiment: SPR (BIAcore), Fab immobilized on Pioneer F1 chip, AAB1/B2Fc as analyte

Kd: 332 pM
B1: Fab fragment F200 (Fab, V domains shown)
VH: QVQLKESGPGLVAPSQSLSITCTISGFSLTDYGVHWVRQPPGKGLEWLVVIWSDGSSTYNSALKSRMTIRKDNSKSQVFLIMNSLQTDDSAMYYCARHGTYYGMTTTGDALDYWGQGTSVTVSS
VL: QIVLTQSPAIMSASLGERVTMTCTASSSVSSNYLHWYQQKPGSAPNLWIYSTSNLASGVPARFSGSGSGTSYSLTISSMEAEDAATYYCHQYLRSPPTFGGGTKLEIKR
